T1: FcγRIIb (human, UniProt P31994 43-217)
T1 construct: extracellular domain; also called 2b; FcgRIIb
T1 sequence (looked up): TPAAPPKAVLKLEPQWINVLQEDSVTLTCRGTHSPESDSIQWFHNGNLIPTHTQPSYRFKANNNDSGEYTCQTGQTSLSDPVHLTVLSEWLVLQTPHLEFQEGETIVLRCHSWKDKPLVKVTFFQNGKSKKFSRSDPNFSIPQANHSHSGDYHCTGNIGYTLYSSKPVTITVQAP


These binders were tested against T1, FcγRIIb (assay: SPR (Biacore), binding relative to GpH7-B3/GpL16-k0 = 100).

Row | Binder | Ho/Con_2b
1 | GpH7-B3 variant T335_13S/GpL16-k0 (antibody, human IgG1, kappa, also called Ho Ab T335_13S) heavy: not shown light: DIVMTQSPLSLPVTPGEPASISCQASESLVHSNRNTYLHWYLQKPGQSPQLLIYKVSNRFSGVPDRFSGSGSGTDFTLKISRVEAEDVGVYYCSQNTHVPPTFGQGTKVEIERTVAAPSVFIFPPSDEQLKSGTASVVCLLNNFYPREAKVQWKVDNALQSGNSQESVTEQDSKDSTYSLSSTLTLSKADYEKHKVYACEVTHQGLSSPVTKSFNRGEC | 95.2 % of control
2 | GpH7-B3 variant T335_15Y/GpL16-k0 (antibody, human IgG1, kappa, also called Ho Ab T335_15Y) heavy: not shown light: DIVMTQSPLSLPVTPGEPASISCQASESLVHSNRNTYLHWYLQKPGQSPQLLIYKVSNRFSGVPDRFSGSGSGTDFTLKISRVEAEDVGVYYCSQNTHVPPTFGQGTKVEIERTVAAPSVFIFPPSDEQLKSGTASVVCLLNNFYPREAKVQWKVDNALQSGNSQESVTEQDSKDSTYSLSSTLTLSKADYEKHKVYACEVTHQGLSSPVTKSFNRGEC | 104 % of control

The next lines start with the values.

Row | Ho/Con_2b | Binder
3 | 96.1 % of control | GpH7-B3 variant T335_18N/GpL16-k0 (antibody, human IgG1, kappa, also called Ho Ab T335_18N) heavy: not shown light: DIVMTQSPLSLPVTPGEPASISCQASESLVHSNRNTYLHWYLQKPGQSPQLLIYKVSNRFSGVPDRFSGSGSGTDFTLKISRVEAEDVGVYYCSQNTHVPPTFGQGTKVEIERTVAAPSVFIFPPSDEQLKSGTASVVCLLNNFYPREAKVQWKVDNALQSGNSQESVTEQDSKDSTYSLSSTLTLSKADYEKHKVYACEVTHQGLSSPVTKSFNRGEC
4 | 103 % of control | GpH7-B3 variant Y296_20W/GpL16-k0 (antibody, human IgG1, kappa, also called Ho Ab Y296_20W) heavy: not shown light: DIVMTQSPLSLPVTPGEPASISCQASESLVHSNRNTYLHWYLQKPGQSPQLLIYKVSNRFSGVPDRFSGSGSGTDFTLKISRVEAEDVGVYYCSQNTHVPPTFGQGTKVEIERTVAAPSVFIFPPSDEQLKSGTASVVCLLNNFYPREAKVQWKVDNALQSGNSQESVTEQDSKDSTYSLSSTLTLSKADYEKHKVYACEVTHQGLSSPVTKSFNRGEC
5 | 97.3 % of control | GpH7-B3 variant T335_19Q/GpL16-k0 (antibody, human IgG1, kappa, also called Ho Ab T335_19Q) heavy: not shown light: DIVMTQSPLSLPVTPGEPASISCQASESLVHSNRNTYLHWYLQKPGQSPQLLIYKVSNRFSGVPDRFSGSGSGTDFTLKISRVEAEDVGVYYCSQNTHVPPTFGQGTKVEIERTVAAPSVFIFPPSDEQLKSGTASVVCLLNNFYPREAKVQWKVDNALQSGNSQESVTEQDSKDSTYSLSSTLTLSKADYEKHKVYACEVTHQGLSSPVTKSFNRGEC
6 | 94.4 % of control | GpH7-B3 variant T335_20W/GpL16-k0 (antibody, human IgG1, kappa, also called Ho Ab T335_20W) heavy: not shown light: DIVMTQSPLSLPVTPGEPASISCQASESLVHSNRNTYLHWYLQKPGQSPQLLIYKVSNRFSGVPDRFSGSGSGTDFTLKISRVEAEDVGVYYCSQNTHVPPTFGQGTKVEIERTVAAPSVFIFPPSDEQLKSGTASVVCLLNNFYPREAKVQWKVDNALQSGNSQESVTEQDSKDSTYSLSSTLTLSKADYEKHKVYACEVTHQGLSSPVTKSFNRGEC
7 | 231 % of control | GpH7-B3 variant V266_06M/GpL16-k0 (antibody, human IgG1, kappa, also called Ho Ab V266_06M) heavy: not shown light: DIVMTQSPLSLPVTPGEPASISCQASESLVHSNRNTYLHWYLQKPGQSPQLLIYKVSNRFSGVPDRFSGSGSGTDFTLKISRVEAEDVGVYYCSQNTHVPPTFGQGTKVEIERTVAAPSVFIFPPSDEQLKSGTASVVCLLNNFYPREAKVQWKVDNALQSGNSQESVTEQDSKDSTYSLSSTLTLSKADYEKHKVYACEVTHQGLSSPVTKSFNRGEC
8 | 97.2 % of control | GpH7-B3 variant T335_16H/GpL16-k0 (antibody, human IgG1, kappa, also called Ho Ab T335_16H) heavy: not shown light: DIVMTQSPLSLPVTPGEPASISCQASESLVHSNRNTYLHWYLQKPGQSPQLLIYKVSNRFSGVPDRFSGSGSGTDFTLKISRVEAEDVGVYYCSQNTHVPPTFGQGTKVEIERTVAAPSVFIFPPSDEQLKSGTASVVCLLNNFYPREAKVQWKVDNALQSGNSQESVTEQDSKDSTYSLSSTLTLSKADYEKHKVYACEVTHQGLSSPVTKSFNRGEC

The binders below were run against T1, FcγRIIb (assay: SPR (Biacore), binding relative to GpH7-A5/GpH7-B3/GpL16-k0 = 100).
Description: Analysis of interaction between objective antibody and the FcγR was carried out using Biacore T100 (GE Healthcare). HBS-EP+ (GE Healthcare) was used as the running buffer, and the measurement temperature was set to 25° C. Chips produced by immobilizing the antigen peptide by the amine coupling method to a Series S Sencor Chip CM5 (GE Healthcare), or alternatively, chips produced by allowing preliminarily biotinylated antigen peptides to interact with and immobilize onto a Series S Sensor Chip SA (certified) (GE Healthcare) were used. Antibodies of interest were captured onto an antigen peptide-immobilized chip, and allowed to interact to each FcγR diluted with running buffer. To regenerate and repeatedly use the chip, the antibodies captured on the chip were washed off by reacting 10 mM glycine-HCl, pH 1.5.
The FcγR-binding activity of each antibody was assessed primarily using as an indicator the FcγR-binding activity and dissociation constant for FcγR.

Row | He/Con_2b | Binder
9 | 124 % of control | GpH7-A5/GpH7-B3 variant G237_02A/GpL16-k0 (antibody, human IgG1, kappa, also called He Ab G237_02A) heavy 1: not shown heavy 2: not shown light: DIVMTQSPLSLPVTPGEPASISCQASESLVHSNRNTYLHWYLQKPGQSPQLLIYKVSNRFSGVPDRFSGSGSGTDFTLKISRVEAEDVGVYYCSQNTHVPPTFGQGTKVEIERTVAAPSVFIFPPSDEQLKSGTASVVCLLNNFYPREAKVQWKVDNALQSGNSQESVTEQDSKDSTYSLSSTLTLSKADYEKHKVYACEVTHQGLSSPVTKSFNRGEC
10 | 127 % of control | GpH7-A5/GpH7-B3 variant A327_07I/GpL16-k0 (antibody, human IgG1, kappa, also called He Ab A327_07I) heavy 1: not shown heavy 2: not shown light: DIVMTQSPLSLPVTPGEPASISCQASESLVHSNRNTYLHWYLQKPGQSPQLLIYKVSNRFSGVPDRFSGSGSGTDFTLKISRVEAEDVGVYYCSQNTHVPPTFGQGTKVEIERTVAAPSVFIFPPSDEQLKSGTASVVCLLNNFYPREAKVQWKVDNALQSGNSQESVTEQDSKDSTYSLSSTLTLSKADYEKHKVYACEVTHQGLSSPVTKSFNRGEC
11 | 130 % of control | GpH7-A5/GpH7-B3 variant G237_06M/GpL16-k0 (antibody, human IgG1, kappa, also called He Ab G237_06M) heavy 1: not shown heavy 2: not shown light: DIVMTQSPLSLPVTPGEPASISCQASESLVHSNRNTYLHWYLQKPGQSPQLLIYKVSNRFSGVPDRFSGSGSGTDFTLKISRVEAEDVGVYYCSQNTHVPPTFGQGTKVEIERTVAAPSVFIFPPSDEQLKSGTASVVCLLNNFYPREAKVQWKVDNALQSGNSQESVTEQDSKDSTYSLSSTLTLSKADYEKHKVYACEVTHQGLSSPVTKSFNRGEC
12 | 148 % of control | GpH7-A5/GpH7-B3 variant G237_08L/GpL16-k0 (antibody, human IgG1, kappa, also called He Ab G237_08L) heavy 1: not shown heavy 2: not shown light: DIVMTQSPLSLPVTPGEPASISCQASESLVHSNRNTYLHWYLQKPGQSPQLLIYKVSNRFSGVPDRFSGSGSGTDFTLKISRVEAEDVGVYYCSQNTHVPPTFGQGTKVEIERTVAAPSVFIFPPSDEQLKSGTASVVCLLNNFYPREAKVQWKVDNALQSGNSQESVTEQDSKDSTYSLSSTLTLSKADYEKHKVYACEVTHQGLSSPVTKSFNRGEC
13 | 149 % of control | GpH7-A5/GpH7-B3 variant G237_04F/GpL16-k0 (antibody, human IgG1, kappa, also called He Ab G237_04F) heavy 1: not shown heavy 2: not shown light: DIVMTQSPLSLPVTPGEPASISCQASESLVHSNRNTYLHWYLQKPGQSPQLLIYKVSNRFSGVPDRFSGSGSGTDFTLKISRVEAEDVGVYYCSQNTHVPPTFGQGTKVEIERTVAAPSVFIFPPSDEQLKSGTASVVCLLNNFYPREAKVQWKVDNALQSGNSQESVTEQDSKDSTYSLSSTLTLSKADYEKHKVYACEVTHQGLSSPVTKSFNRGEC
14 | 113 % of control | GpH7-A5/GpH7-B3 variant A327_18N/GpL16-k0 (antibody, human IgG1, kappa, also called He Ab A327_18N) heavy 1: not shown heavy 2: not shown light: DIVMTQSPLSLPVTPGEPASISCQASESLVHSNRNTYLHWYLQKPGQSPQLLIYKVSNRFSGVPDRFSGSGSGTDFTLKISRVEAEDVGVYYCSQNTHVPPTFGQGTKVEIERTVAAPSVFIFPPSDEQLKSGTASVVCLLNNFYPREAKVQWKVDNALQSGNSQESVTEQDSKDSTYSLSSTLTLSKADYEKHKVYACEVTHQGLSSPVTKSFNRGEC
15 | 104 % of control | GpH7-A5/GpH7-B3 variant A330_01G/GpL16-k0 (antibody, human IgG1, kappa, also called He Ab A330_01G) heavy 1: not shown heavy 2: not shown light: DIVMTQSPLSLPVTPGEPASISCQASESLVHSNRNTYLHWYLQKPGQSPQLLIYKVSNRFSGVPDRFSGSGSGTDFTLKISRVEAEDVGVYYCSQNTHVPPTFGQGTKVEIERTVAAPSVFIFPPSDEQLKSGTASVVCLLNNFYPREAKVQWKVDNALQSGNSQESVTEQDSKDSTYSLSSTLTLSKADYEKHKVYACEVTHQGLSSPVTKSFNRGEC
16 | 137 % of control | GpH7-A5/GpH7-B3 variant A330_05P/GpL16-k0 (antibody, human IgG1, kappa, also called He Ab A330_05P) heavy 1: not shown heavy 2: not shown light: DIVMTQSPLSLPVTPGEPASISCQASESLVHSNRNTYLHWYLQKPGQSPQLLIYKVSNRFSGVPDRFSGSGSGTDFTLKISRVEAEDVGVYYCSQNTHVPPTFGQGTKVEIERTVAAPSVFIFPPSDEQLKSGTASVVCLLNNFYPREAKVQWKVDNALQSGNSQESVTEQDSKDSTYSLSSTLTLSKADYEKHKVYACEVTHQGLSSPVTKSFNRGEC

Reference: patent US20180155451A1 (published 2018)
